{"source": "patent US20190022259A1", "about": "“Use of 99mTc-tilmanocept and related molecular constructs for identifying and diagnosing malignant tumors and for monitoring therapeutic anti-tumor interventions” (Navidea Biopharmaceuticals, Inc., priority 2017, published 2019)", "key": {"[1]": {"settings": "human, in vivo", "protocol": "A safety follow-up was conducted between 2 to 8 days after the injection."}, "[2]": {"tested_on": "TAMs around liver metastases (CD206+ macrophages)", "test": "SPECT/CT imaging of colorectal cancer patients with synchronous liver metastasis after intravenous injection", "format": "in vivo, human", "settings": "imaging 4-6 hours after injection"}, "[3]": {"settings": "rat, in vivo, iv; cited from earlier work"}}, "note": "Entries after “also recorded” stand apart in the source; their conditions may differ."}
{"substance": "(99m)Tc-diethylenetriaminepentaacetic acid (DTPA)-mannosyl-dextran [^99mTc tilmanocept]", "values": [{"measurement": "adverse drug reactions", "setting": "[1]", "value": "No adverse drug reactions were observed"}, {"measurement": "tolerability of IV injection", "setting": "[1]; iv", "value": "well-tolerated"}, {"measurement": "localization on SPECT/CT image", "setting": "[2]; first subject, 50 μg/2mCi i.v.", "value": "localization of ^99mTc tilmanocept in an area of larger metastasis than was observed with the FDG PET/CT; also recorded: suggests the presence of TAMs around the metastasis"}, {"measurement": "localization on SPECT/CT image", "setting": "[2]; second subject, 200 μg/2mCi i.v.", "value": "Localization around the metastasis was noted"}, {"measurement": "excretion", "setting": "[3]", "value": "excreted into the urine"}]}
